Tests used:
[1] = biological target: the molecule itself; test: crystal structure; Qri7 30-407 at 10 mg/ml, 0.1 M Tris-HCl pH 7.5, 8% PEG8000, 0.2 M MgCl2, 4°C; homodimer by crystallographic symmetry
[2] = biological target: the molecule itself; test: AUC; dimerization dissociation constants of the interface mutants (Supplementary Figure S5B); whether from equilibrium or velocity runs is not stated; 20°C; dimer to monomers
[3] = biological target: the molecule itself; test: AUC; sedimentation velocity, 20°C, 42 000 rpm, 0.3125, 0.0625, 0.125, 0.250, 0.5 or 1 mg/ml protein
[4] = biological target: the molecule itself; test: AUC; sedimentation equilibrium, 20°C, 0.25, 0.5 and 1 mg/ml, 10 000, 12 000, 15 000 rpm; fitted to a monomer-dimer model; dimer to monomers

B1: Saccharomyces cerevisiae Qri7 (amino acids 30-407), crystallised form (enzyme, UniProt P43122 30-407, looked up)
chain: RKGYKVLAIETSCDDTCVSVLDRFSKSAAPNVLANLKDTLDSIDEGGIIPTKAHIHHQARIGPLTERALIESNAREGIDLICVTRGPGMPGSLSGGLDFAKGLAVAWNKPLIGVHHMLGHLLIPRMGTNGKVPQFPFVSLLVSGGHTTFVLSRAIDDHEILCDTIDIAVGDSLDKCGRELGFKGTMIAREMEKFINQDINDQDFALKLEMPSPLKNSASKRNMLSFSFSAFITALRTNLTKLGKTEIQELPEREIRSIAYQVQESVFDHIINKLKHVLKSQPEKFKNVREFVCSGGVSSNQRLRTKLETELGTLNSTSFFNFYYPPMDLCSDNSIMIGWAGIEIWESLRLVSDLDICPIRQWPLNDLLSVDGWRTDQL
modifications: seleno-methionine (a seleno-methionine crystal data set was collected)
notes: One protomer in the asymmetric unit; the homodimer is made by crystallographic symmetry; also called scQri7; not shown: His6, N-terminal, cleaved
- binding result [1]: binds

B2: Qri7 (30-407) R104A (enzyme, yeast (Saccharomyces cerevisiae), UniProt P43122 30-407, looked up)
chain: RKGYKVLAIETSCDDTCVSVLDRFSKSAAPNVLANLKDTLDSIDEGGIIPTKAHIHHQARIGPLTERALIESNAAEGIDLICVTRGPGMPGSLSGGLDFAKGLAVAWNKPLIGVHHMLGHLLIPRMGTNGKVPQFPFVSLLVSGGHTTFVLSRAIDDHEILCDTIDIAVGDSLDKCGRELGFKGTMIAREMEKFINQDINDQDFALKLEMPSPLKNSASKRNMLSFSFSAFITALRTNLTKLGKTEIQELPEREIRSIAYQVQESVFDHIINKLKHVLKSQPEKFKNVREFVCSGGVSSNQRLRTKLETELGTLNSTSFFNFYYPPMDLCSDNSIMIGWAGIEIWESLRLVSDLDICPIRQWPLNDLLSVDGWRTDQL
notes: Qri7, S. cerevisiae, amino acids 30-407, dimer interface mutant; also called R104A mutant; source: E. coli BL21 (DE3) CodonPlus, purified (Ni-NTA or glutathione sepharose, SEC)
- Kd [2]: 3 ± 0.3 µM

B3: Qri7 (30-407) S258A (enzyme, yeast (Saccharomyces cerevisiae), UniProt P43122 30-407, looked up)
chain: RKGYKVLAIETSCDDTCVSVLDRFSKSAAPNVLANLKDTLDSIDEGGIIPTKAHIHHQARIGPLTERALIESNAREGIDLICVTRGPGMPGSLSGGLDFAKGLAVAWNKPLIGVHHMLGHLLIPRMGTNGKVPQFPFVSLLVSGGHTTFVLSRAIDDHEILCDTIDIAVGDSLDKCGRELGFKGTMIAREMEKFINQDINDQDFALKLEMPSPLKNSASKRNMLSFSFAAFITALRTNLTKLGKTEIQELPEREIRSIAYQVQESVFDHIINKLKHVLKSQPEKFKNVREFVCSGGVSSNQRLRTKLETELGTLNSTSFFNFYYPPMDLCSDNSIMIGWAGIEIWESLRLVSDLDICPIRQWPLNDLLSVDGWRTDQL
notes: Qri7, S. cerevisiae, amino acids 30-407, catalytic cleft mutant; source: E. coli BL21 (DE3) CodonPlus, purified (Ni-NTA or glutathione sepharose, SEC)
- stoichiometry N [3]: 2

B4: Qri7 (30-407) D44A (enzyme, yeast (Saccharomyces cerevisiae), UniProt P43122 30-407, looked up)
chain: RKGYKVLAIETSCDATCVSVLDRFSKSAAPNVLANLKDTLDSIDEGGIIPTKAHIHHQARIGPLTERALIESNAREGIDLICVTRGPGMPGSLSGGLDFAKGLAVAWNKPLIGVHHMLGHLLIPRMGTNGKVPQFPFVSLLVSGGHTTFVLSRAIDDHEILCDTIDIAVGDSLDKCGRELGFKGTMIAREMEKFINQDINDQDFALKLEMPSPLKNSASKRNMLSFSFSAFITALRTNLTKLGKTEIQELPEREIRSIAYQVQESVFDHIINKLKHVLKSQPEKFKNVREFVCSGGVSSNQRLRTKLETELGTLNSTSFFNFYYPPMDLCSDNSIMIGWAGIEIWESLRLVSDLDICPIRQWPLNDLLSVDGWRTDQL
notes: as for B3
- stoichiometry N [3]: 2

B5: Qri7 (residues 30-407), wild type, as used for analytical ultracentrifugation (enzyme, yeast (Saccharomyces cerevisiae), UniProt P43122 30-407, looked up)
chain: RKGYKVLAIETSCDDTCVSVLDRFSKSAAPNVLANLKDTLDSIDEGGIIPTKAHIHHQARIGPLTERALIESNAREGIDLICVTRGPGMPGSLSGGLDFAKGLAVAWNKPLIGVHHMLGHLLIPRMGTNGKVPQFPFVSLLVSGGHTTFVLSRAIDDHEILCDTIDIAVGDSLDKCGRELGFKGTMIAREMEKFINQDINDQDFALKLEMPSPLKNSASKRNMLSFSFSAFITALRTNLTKLGKTEIQELPEREIRSIAYQVQESVFDHIINKLKHVLKSQPEKFKNVREFVCSGGVSSNQRLRTKLETELGTLNSTSFFNFYYPPMDLCSDNSIMIGWAGIEIWESLRLVSDLDICPIRQWPLNDLLSVDGWRTDQL
notes: Qri7, S. cerevisiae, amino acids 30-407; also called wild-type Qri7; source: E. coli BL21 (DE3) CodonPlus, purified (Ni-NTA or glutathione sepharose, SEC)
- Kd [4]: 0.06 µM
- stoichiometry N [3]: 2

B6: Qri7 (30-407) K130A (enzyme, yeast (Saccharomyces cerevisiae), UniProt P43122 30-407, looked up)
chain: RKGYKVLAIETSCDDTCVSVLDRFSKSAAPNVLANLKDTLDSIDEGGIIPTKAHIHHQARIGPLTERALIESNAREGIDLICVTRGPGMPGSLSGGLDFAAGLAVAWNKPLIGVHHMLGHLLIPRMGTNGKVPQFPFVSLLVSGGHTTFVLSRAIDDHEILCDTIDIAVGDSLDKCGRELGFKGTMIAREMEKFINQDINDQDFALKLEMPSPLKNSASKRNMLSFSFSAFITALRTNLTKLGKTEIQELPEREIRSIAYQVQESVFDHIINKLKHVLKSQPEKFKNVREFVCSGGVSSNQRLRTKLETELGTLNSTSFFNFYYPPMDLCSDNSIMIGWAGIEIWESLRLVSDLDICPIRQWPLNDLLSVDGWRTDQL
notes: Qri7, S. cerevisiae, amino acids 30-407, dimer interface mutant; also called K130A mutant; source: E. coli BL21 (DE3) CodonPlus, purified (Ni-NTA or glutathione sepharose, SEC)
- Kd [2]: 2.5 ± 0.2 µM

B7: Qri7 (30-407) R207A (enzyme, yeast (Saccharomyces cerevisiae), UniProt P43122 30-407, looked up)
chain: RKGYKVLAIETSCDDTCVSVLDRFSKSAAPNVLANLKDTLDSIDEGGIIPTKAHIHHQARIGPLTERALIESNAREGIDLICVTRGPGMPGSLSGGLDFAKGLAVAWNKPLIGVHHMLGHLLIPRMGTNGKVPQFPFVSLLVSGGHTTFVLSRAIDDHEILCDTIDIAVGDSLDKCGAELGFKGTMIAREMEKFINQDINDQDFALKLEMPSPLKNSASKRNMLSFSFSAFITALRTNLTKLGKTEIQELPEREIRSIAYQVQESVFDHIINKLKHVLKSQPEKFKNVREFVCSGGVSSNQRLRTKLETELGTLNSTSFFNFYYPPMDLCSDNSIMIGWAGIEIWESLRLVSDLDICPIRQWPLNDLLSVDGWRTDQL
notes: as for B3
- stoichiometry N [3]: 2

B8: Qri7 (30-407) D43A (enzyme, yeast (Saccharomyces cerevisiae), UniProt P43122 30-407, looked up)
chain: RKGYKVLAIETSCADTCVSVLDRFSKSAAPNVLANLKDTLDSIDEGGIIPTKAHIHHQARIGPLTERALIESNAREGIDLICVTRGPGMPGSLSGGLDFAKGLAVAWNKPLIGVHHMLGHLLIPRMGTNGKVPQFPFVSLLVSGGHTTFVLSRAIDDHEILCDTIDIAVGDSLDKCGRELGFKGTMIAREMEKFINQDINDQDFALKLEMPSPLKNSASKRNMLSFSFSAFITALRTNLTKLGKTEIQELPEREIRSIAYQVQESVFDHIINKLKHVLKSQPEKFKNVREFVCSGGVSSNQRLRTKLETELGTLNSTSFFNFYYPPMDLCSDNSIMIGWAGIEIWESLRLVSDLDICPIRQWPLNDLLSVDGWRTDQL
notes: as for B3
- stoichiometry N [3]: 2

B9: Qri7 (30-407) I77E (enzyme, yeast (Saccharomyces cerevisiae), UniProt P43122 30-407, looked up)
chain: RKGYKVLAIETSCDDTCVSVLDRFSKSAAPNVLANLKDTLDSIDEGGEIPTKAHIHHQARIGPLTERALIESNAREGIDLICVTRGPGMPGSLSGGLDFAKGLAVAWNKPLIGVHHMLGHLLIPRMGTNGKVPQFPFVSLLVSGGHTTFVLSRAIDDHEILCDTIDIAVGDSLDKCGRELGFKGTMIAREMEKFINQDINDQDFALKLEMPSPLKNSASKRNMLSFSFSAFITALRTNLTKLGKTEIQELPEREIRSIAYQVQESVFDHIINKLKHVLKSQPEKFKNVREFVCSGGVSSNQRLRTKLETELGTLNSTSFFNFYYPPMDLCSDNSIMIGWAGIEIWESLRLVSDLDICPIRQWPLNDLLSVDGWRTDQL
notes: as for B3
- stoichiometry N [3]: 2
